Patent US20190177366A1 (published 2019)
Numbered stars: 1 amine (or outer) side, 2 acyl side, 3 side chain; on linkers, the order of the positions; unused ones are H or OH. Bridge positions count the residues as written; N and C are the ends. Square brackets hold non-standard residues; d marks the D form. Primed or numbered codes have the meaning given here. NH(CH2)9CO = O=C(CCCCCCCCCN[*:1])[*:2]; NH(CH2)8CO = O=C(CCCCCCCCN[*:1])[*:2]; hArg = N=C(N)NCCCC[C@H](N)C(=O)O; Cit = NC(=O)NCCC[C@H](N)C(=O)O; Aun = NCCCCCCCCCCC(=O)O; Hyp′ = 3-hydroxyproline; Aoc = NCCCCCCCC(=O)O; Ahp = NCCCCCCC(=O)O; Ahx = NCCCCCC(=O)O; Ava = NCCCCC(=O)O

B1: Compound 121 (peptide)
peptide: Ac-CRLPWNLQRI[Ahp]C-NH2
modifications: disulfide 1-12
SMILES: CC[C@H](C)[C@@H]1NC(=O)[C@H](CCCNC(=N)N)NC(=O)[C@H](CCC(N)=O)NC(=O)[C@H](CC(C)C)NC(=O)[C@H](CC(N)=O)NC(=O)[C@H](Cc2c[nH]c3ccccc23)NC(=O)[C@@H]2CCCN2C(=O)[C@H](CC(C)C)NC(=O)[C@H](CCCNC(=N)N)NC(=O)[C@@H](NC(C)=O)CSSC[C@@H](C(N)=O)NC(=O)CCCCCCNC1=O
B2: Compound 104 (peptide)
peptide: Ac-CRLPWN[dL]QRIGLPC-NH2
modifications: disulfide 1-14
SMILES: CC[C@H](C)[C@@H]1NC(=O)[C@H](CCCNC(=N)N)NC(=O)[C@H](CCC(N)=O)NC(=O)[C@@H](CC(C)C)NC(=O)[C@H](CC(N)=O)NC(=O)[C@H](Cc2c[nH]c3ccccc23)NC(=O)[C@@H]2CCCN2C(=O)[C@H](CC(C)C)NC(=O)[C@H](CCCNC(=N)N)NC(=O)[C@@H](NC(C)=O)CSSC[C@@H](C(N)=O)NC(=O)[C@@H]2CCCN2C(=O)[C@H](CC(C)C)NC(=O)CNC1=O
notes: also called Ac-CRLPWNlQRIGLPC-NH2
B3: Compound 103 (peptide)
peptide: Ac-CRLPWNL[dQ]RIGLPC-NH2
modifications: disulfide 1-14
SMILES: CC[C@H](C)[C@@H]1NC(=O)[C@H](CCCNC(=N)N)NC(=O)[C@@H](CCC(N)=O)NC(=O)[C@H](CC(C)C)NC(=O)[C@H](CC(N)=O)NC(=O)[C@H](Cc2c[nH]c3ccccc23)NC(=O)[C@@H]2CCCN2C(=O)[C@H](CC(C)C)NC(=O)[C@H](CCCNC(=N)N)NC(=O)[C@@H](NC(C)=O)CSSC[C@@H](C(N)=O)NC(=O)[C@@H]2CCCN2C(=O)[C@H](CC(C)C)NC(=O)CNC1=O
notes: also called Ac-CRLPWNLqRIGLPC-NH2
B4: Compound 85 (peptide)
peptide: Ac-CRLPWNLQR[NH(CH2)8CO]C-NH2
modifications: disulfide 1-11
SMILES: CC(=O)N[C@H]1CSSC[C@@H](C(N)=O)NC(=O)CCCCCCCCNC(=O)[C@H](CCCNC(=N)N)NC(=O)[C@H](CCC(N)=O)NC(=O)[C@H](CC(C)C)NC(=O)[C@H](CC(N)=O)NC(=O)[C@H](Cc2c[nH]c3ccccc23)NC(=O)[C@@H]2CCCN2C(=O)[C@H](CC(C)C)NC(=O)[C@H](CCCNC(=N)N)NC1=O
B5: Compound 117 (peptide)
peptide: Ac-CRLPWNLQ[hArg]IGLPC-NH2
modifications: disulfide 1-14
SMILES: CC[C@H](C)[C@@H]1NC(=O)[C@H](CCCCNC(=N)N)NC(=O)[C@H](CCC(N)=O)NC(=O)[C@H](CC(C)C)NC(=O)[C@H](CC(N)=O)NC(=O)[C@H](Cc2c[nH]c3ccccc23)NC(=O)[C@@H]2CCCN2C(=O)[C@H](CC(C)C)NC(=O)[C@H](CCCNC(=N)N)NC(=O)[C@@H](NC(C)=O)CSSC[C@@H](C(N)=O)NC(=O)[C@@H]2CCCN2C(=O)[C@H](CC(C)C)NC(=O)CNC1=O
B6: Compound 101 (peptide)
peptide: Ac-CRLPWNLQR[dI]GLPC-NH2
modifications: disulfide 1-14
SMILES: CC[C@@H](C)[C@H]1NC(=O)[C@H](CCCNC(=N)N)NC(=O)[C@H](CCC(N)=O)NC(=O)[C@H](CC(C)C)NC(=O)[C@H](CC(N)=O)NC(=O)[C@H](Cc2c[nH]c3ccccc23)NC(=O)[C@@H]2CCCN2C(=O)[C@H](CC(C)C)NC(=O)[C@H](CCCNC(=N)N)NC(=O)[C@@H](NC(C)=O)CSSC[C@@H](C(N)=O)NC(=O)[C@@H]2CCCN2C(=O)[C@H](CC(C)C)NC(=O)CNC1=O
B7: Compound 37 (peptide)
peptide: Ac-SGCRL[Hyp′]WNLQRIGLPC-NH2
modifications: disulfide 3-16
B8: Compound 105 (peptide)
peptide: Ac-CRLPW[dN]LQRIGLPC-NH2
modifications: disulfide 1-14
SMILES: CC[C@H](C)[C@@H]1NC(=O)[C@H](CCCNC(=N)N)NC(=O)[C@H](CCC(N)=O)NC(=O)[C@H](CC(C)C)NC(=O)[C@@H](CC(N)=O)NC(=O)[C@H](Cc2c[nH]c3ccccc23)NC(=O)[C@@H]2CCCN2C(=O)[C@H](CC(C)C)NC(=O)[C@H](CCCNC(=N)N)NC(=O)[C@@H](NC(C)=O)CSSC[C@@H](C(N)=O)NC(=O)[C@@H]2CCCN2C(=O)[C@H](CC(C)C)NC(=O)CNC1=O
B9: Compound 102 (peptide)
peptide: Ac-CRLPWNLQ[dR]IGLPC-NH2
modifications: disulfide 1-14
SMILES: CC[C@H](C)[C@@H]1NC(=O)[C@@H](CCCNC(=N)N)NC(=O)[C@H](CCC(N)=O)NC(=O)[C@H](CC(C)C)NC(=O)[C@H](CC(N)=O)NC(=O)[C@H](Cc2c[nH]c3ccccc23)NC(=O)[C@@H]2CCCN2C(=O)[C@H](CC(C)C)NC(=O)[C@H](CCCNC(=N)N)NC(=O)[C@@H](NC(C)=O)CSSC[C@@H](C(N)=O)NC(=O)[C@@H]2CCCN2C(=O)[C@H](CC(C)C)NC(=O)CNC1=O
B10: Compound 100 (peptide)
peptide: Ac-CRLPWNLQRIG[dL]PC-NH2
modifications: disulfide 1-14
SMILES: CC[C@H](C)[C@@H]1NC(=O)[C@H](CCCNC(=N)N)NC(=O)[C@H](CCC(N)=O)NC(=O)[C@H](CC(C)C)NC(=O)[C@H](CC(N)=O)NC(=O)[C@H](Cc2c[nH]c3ccccc23)NC(=O)[C@@H]2CCCN2C(=O)[C@H](CC(C)C)NC(=O)[C@H](CCCNC(=N)N)NC(=O)[C@@H](NC(C)=O)CSSC[C@@H](C(N)=O)NC(=O)[C@@H]2CCCN2C(=O)[C@@H](CC(C)C)NC(=O)CNC1=O
B11: Compound 84 (peptide)
peptide: Ac-CRLPWNLQR[NH(CH2)9CO]C-NH2
modifications: disulfide 1-11
SMILES: CC(=O)N[C@H]1CSSC[C@@H](C(N)=O)NC(=O)CCCCCCCCCNC(=O)[C@H](CCCNC(=N)N)NC(=O)[C@H](CCC(N)=O)NC(=O)[C@H](CC(C)C)NC(=O)[C@H](CC(N)=O)NC(=O)[C@H](Cc2c[nH]c3ccccc23)NC(=O)[C@@H]2CCCN2C(=O)[C@H](CC(C)C)NC(=O)[C@H](CCCNC(=N)N)NC1=O
B12: Compound 107 (peptide)
peptide: Ac-CRL[dP]WNLQRIGLPC-NH2
modifications: disulfide 1-14
SMILES: CC[C@H](C)[C@@H]1NC(=O)[C@H](CCCNC(=N)N)NC(=O)[C@H](CCC(N)=O)NC(=O)[C@H](CC(C)C)NC(=O)[C@H](CC(N)=O)NC(=O)[C@H](Cc2c[nH]c3ccccc23)NC(=O)[C@H]2CCCN2C(=O)[C@H](CC(C)C)NC(=O)[C@H](CCCNC(=N)N)NC(=O)[C@@H](NC(C)=O)CSSC[C@@H](C(N)=O)NC(=O)[C@@H]2CCCN2C(=O)[C@H](CC(C)C)NC(=O)CNC1=O
B13: Compound 106 (peptide)
peptide: Ac-CRLP[dW]NLQRIGLPC-NH2
modifications: disulfide 1-14
SMILES: CC[C@H](C)[C@@H]1NC(=O)[C@H](CCCNC(=N)N)NC(=O)[C@H](CCC(N)=O)NC(=O)[C@H](CC(C)C)NC(=O)[C@H](CC(N)=O)NC(=O)[C@@H](Cc2c[nH]c3ccccc23)NC(=O)[C@@H]2CCCN2C(=O)[C@H](CC(C)C)NC(=O)[C@H](CCCNC(=N)N)NC(=O)[C@@H](NC(C)=O)CSSC[C@@H](C(N)=O)NC(=O)[C@@H]2CCCN2C(=O)[C@H](CC(C)C)NC(=O)CNC1=O
B14: Compound 86 (peptide)
peptide: Ac-CRLPWNLQR[Aoc]C-NH2
modifications: disulfide 1-11
SMILES: CC(=O)N[C@H]1CSSC[C@@H](C(N)=O)NC(=O)CCCCCCCNC(=O)[C@H](CCCNC(=N)N)NC(=O)[C@H](CCC(N)=O)NC(=O)[C@H](CC(C)C)NC(=O)[C@H](CC(N)=O)NC(=O)[C@H](Cc2c[nH]c3ccccc23)NC(=O)[C@@H]2CCCN2C(=O)[C@H](CC(C)C)NC(=O)[C@H](CCCNC(=N)N)NC1=O
B15: Compound 36 (peptide)
peptide: Ac-SGCFIPWNLQ[Cit]IGLPC-NH2
modifications: disulfide 3-16
SMILES: CC[C@H](C)[C@@H]1NC(=O)[C@H](CCCNC(N)=O)NC(=O)[C@H](CCC(N)=O)NC(=O)[C@H](CC(C)C)NC(=O)[C@H](CC(N)=O)NC(=O)[C@H](Cc2c[nH]c3ccccc23)NC(=O)[C@@H]2CCCN2C(=O)[C@H]([C@@H](C)CC)NC(=O)[C@H](Cc2ccccc2)NC(=O)[C@@H](NC(=O)CNC(=O)[C@H](CO)NC(C)=O)CSSC[C@@H](C(N)=O)NC(=O)[C@@H]2CCCN2C(=O)[C@H](CC(C)C)NC(=O)CNC1=O
B16: Compound 115 (peptide)
peptide: Ac-CRLPWNLQRI[Ava]C-NH2
modifications: disulfide 1-12
SMILES: CC[C@H](C)[C@@H]1NC(=O)[C@H](CCCNC(=N)N)NC(=O)[C@H](CCC(N)=O)NC(=O)[C@H](CC(C)C)NC(=O)[C@H](CC(N)=O)NC(=O)[C@H](Cc2c[nH]c3ccccc23)NC(=O)[C@@H]2CCCN2C(=O)[C@H](CC(C)C)NC(=O)[C@H](CCCNC(=N)N)NC(=O)[C@@H](NC(C)=O)CSSC[C@@H](C(N)=O)NC(=O)CCCCNC1=O
B17: Compound 83 (peptide)
peptide: Ac-CRLPWNLQR[Aun]C-NH2
modifications: disulfide 1-11
SMILES: CC(=O)N[C@H]1CSSC[C@@H](C(N)=O)NC(=O)CCCCCCCCCCNC(=O)[C@H](CCCNC(=N)N)NC(=O)[C@H](CCC(N)=O)NC(=O)[C@H](CC(C)C)NC(=O)[C@H](CC(N)=O)NC(=O)[C@H](Cc2c[nH]c3ccccc23)NC(=O)[C@@H]2CCCN2C(=O)[C@H](CC(C)C)NC(=O)[C@H](CCCNC(=N)N)NC1=O
B18: Compound 116 (peptide)
peptide: Ac-CRLPWNLQRI[Ahx]C-NH2
modifications: disulfide 1-12
SMILES: CC[C@H](C)[C@@H]1NC(=O)[C@H](CCCNC(=N)N)NC(=O)[C@H](CCC(N)=O)NC(=O)[C@H](CC(C)C)NC(=O)[C@H](CC(N)=O)NC(=O)[C@H](Cc2c[nH]c3ccccc23)NC(=O)[C@@H]2CCCN2C(=O)[C@H](CC(C)C)NC(=O)[C@H](CCCNC(=N)N)NC(=O)[C@@H](NC(C)=O)CSSC[C@@H](C(N)=O)NC(=O)CCCCCNC1=O

Biological target: T1, His-tagged, full-length PCSK9 (human, UniProt A8T644 31-152; Q8NBP7 153-692)
T1 construct: Target protein of the PCSK9/EGF(A) TR-FRET assay (10 nM); also called His-PCSK9; proprotein convertase subtilisin/kexin type 9
T1 sequence (A8T644 31-152 limits assumed, chain 1 of 2): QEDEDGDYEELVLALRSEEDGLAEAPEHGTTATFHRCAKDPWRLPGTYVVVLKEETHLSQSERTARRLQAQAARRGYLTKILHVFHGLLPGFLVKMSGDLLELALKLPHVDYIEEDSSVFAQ
T1 sequence (A8T644 other isoform, or with tags, fused parts or gaps limits assumed, chain 2 of 2): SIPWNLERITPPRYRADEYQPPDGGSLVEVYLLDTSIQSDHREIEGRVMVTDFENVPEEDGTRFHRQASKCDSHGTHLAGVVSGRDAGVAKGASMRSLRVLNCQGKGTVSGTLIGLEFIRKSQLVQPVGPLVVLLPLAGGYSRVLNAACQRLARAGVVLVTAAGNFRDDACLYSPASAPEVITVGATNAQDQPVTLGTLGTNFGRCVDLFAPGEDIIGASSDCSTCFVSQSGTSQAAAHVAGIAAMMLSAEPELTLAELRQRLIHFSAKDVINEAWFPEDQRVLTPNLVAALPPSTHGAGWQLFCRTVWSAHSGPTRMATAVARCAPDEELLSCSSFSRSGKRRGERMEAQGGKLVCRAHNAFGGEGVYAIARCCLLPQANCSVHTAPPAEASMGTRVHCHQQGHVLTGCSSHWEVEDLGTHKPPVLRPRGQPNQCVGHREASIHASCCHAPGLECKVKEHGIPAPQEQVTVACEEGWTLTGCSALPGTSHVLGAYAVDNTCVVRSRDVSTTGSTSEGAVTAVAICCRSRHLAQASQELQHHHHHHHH
Assay: TR-FRET competition; competitor EGF(A)-Fc on His-PCSK9

Row | IC50 [µM] | Binder
1 | > 50 | B1
2 | > 50 | B2
3 | > 50 | B3
4 | > 50 | B4
5 | > 50 | B5
6 | > 50 | B6
7 | > 50 | B7
8 | > 50 | B8
9 | > 50 | B9
10 | > 50 | B10
11 | > 50 | B11
12 | > 50 | B12
13 | > 50 | B13
14 | > 50 | B14
15 | > 50 | B15
16 | > 50 | B16
17 | > 50 | B17
18 | > 50 | B18
